Where a chain is given by its changes, count along the chain named. In names and notes the source's numbering stands.
T1: CD25 (recombinant) (human, UniProt P01589 22-213, limits assumed)
T1 construct: bought protein; also called IL2-R alpha; IL2-Rα
T1 sequence (looked up): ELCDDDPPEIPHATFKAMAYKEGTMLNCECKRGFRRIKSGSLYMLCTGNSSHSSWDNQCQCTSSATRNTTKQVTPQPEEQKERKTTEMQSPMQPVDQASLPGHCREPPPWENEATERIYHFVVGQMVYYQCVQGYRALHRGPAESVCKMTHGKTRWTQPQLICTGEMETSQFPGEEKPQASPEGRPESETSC

T2: human CD25 (human, UniProt P01589 22-213, limits assumed)
T2 construct: Recombinant soluble human CD25, coated on plates (ELISA) or injected over captured antibody (BIAcore); also called hCD25; IL2-R alpha
T2 sequence (looked up): T1 sequence (looked up)

T3: CD25 on Kit225/K6 cells (human, UniProt P01589 22-272)
T3 sequence (looked up): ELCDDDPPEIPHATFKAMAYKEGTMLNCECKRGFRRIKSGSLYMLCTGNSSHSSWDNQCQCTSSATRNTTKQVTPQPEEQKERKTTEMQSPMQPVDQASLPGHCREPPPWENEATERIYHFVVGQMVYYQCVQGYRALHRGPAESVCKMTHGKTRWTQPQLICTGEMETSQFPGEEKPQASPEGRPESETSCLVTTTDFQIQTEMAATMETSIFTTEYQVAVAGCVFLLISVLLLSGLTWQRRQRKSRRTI

T4: human CD25 (recombinant soluble) (human, UniProt P01589 22-240)
T4 construct: extracellular domain; bought protein; also called IL2-Rα; recombinant human IL2-Rα
T4 sequence (looked up): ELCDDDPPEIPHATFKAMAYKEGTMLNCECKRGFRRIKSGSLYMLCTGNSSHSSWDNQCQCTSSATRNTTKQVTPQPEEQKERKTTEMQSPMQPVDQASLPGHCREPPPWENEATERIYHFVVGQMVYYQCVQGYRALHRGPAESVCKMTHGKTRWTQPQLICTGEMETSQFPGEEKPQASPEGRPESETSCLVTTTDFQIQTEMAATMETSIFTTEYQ

B1: daclizumab variant S77 (antibody, IgG1, name in Kabat numbering, V domains shown)
VH: QVQLVQSGAEVKKPGSSVKVSCKASGYTFTSYRMHWVRQAPGQGLEWMGYINPSTGYTEYNQKFKDKATITADESTNTAYMELSSLRSEDTAVYYCARGGGVFDYWGQGTLVTVSS
VL: DIQMTQSPSTLSASVGDRVTITCSASSSISYMHWYQQKPGKAPKLLIYTTSNLASGVPARFSGSGSGTEFTLTISSLQPDDFATYYCHQRSTYPLTFGQGTKVEVK
notes: IgG1; Kabat positions; also called I48M; DAC I48M
B2: Variant C15 (antibody, name in Kabat numbering, V domains shown)
VH: B1 VH with M48I, N52V, S54R, T55R
VL: B1 VL with N52E
notes: Isotype as printed: G1 fa; also called VRR-SE
B3: Variant C16 (antibody, name in Kabat numbering, V domains shown)
VH: B1 VH with M48I, N52R, S54N, T55R
VL: B1 VL with N52E
notes: Isotype as printed: G1 fa; also called RNR-SE
B4: NST-RN (antibody, IgG1, V domains shown)
VH: B1 VH with M48I
VL: B1 VL with S28R
B5: S31A (antibody, IgG1, V domains shown)
VH: B1 VH with M48I
VL: B1 VL with S30A
B6: RKT-SE (antibody, IgG1, name in Kabat numbering, V domains shown)
VH: B1 VH with M48I, N52R, S54K
VL: B1 VL with N52E
B7: T50A (antibody, IgG1, V domains shown)
VH: B1 VH with M48I
VL: B1 VL with T49A
B8: SRK-SE (antibody, IgG1, name in Kabat numbering, V domains shown)
VH: B1 VH with M48I, N52S, S54R, T55K
VL: B1 VL with N52E
notes: IgG1/kappa; also called S52R53K54 VH with S29E53 VL
B9: VRR-SE (antibody, IgG1, name in Kabat numbering, V domains shown)
VH: B1 VH with M48I, N52V, S54R, T55R
VL: B1 VL with N52E
notes: IgG1/kappa; also called VRRE-SE
B10: Y32A (antibody, IgG1, name in Kabat numbering, V domains shown)
VH: B1 VH with M48I
VL: B1 VL with Y31A
B11: RNR-SE (antibody, IgG1, name in Kabat numbering, V domains shown)
VH: B1 VH with M48I, N52R, S54N, T55R
VL: B1 VL with N52E
notes: IgG1/kappa
B12: Variant C46 (antibody, V domains shown)
VH: B1 VH with N52K, S54K, T55S
VL: B1 VL with S28K, N52D
B13: Variant C53 (antibody, V domains shown)
VH: B1 VH with N52S, S54R, T55K, Y57R
VL: B1 VL with S28K, N52D
B14: Variant C51 (antibody, V domains shown)
VH: B1 VH with N52K, S54N, T55K
VL: B1 VL with S28K, N52D
B15: Variant C52 (antibody, V domains shown)
VH: B1 VH with N52K, S54N, T55S
VL: B1 VL with S28K, N52D
B16: Variant C59 (antibody, V domains shown)
VH: B1 VH with N52R, S54K, T55S, Y57R
VL: B1 VL with S28K, N52D
B17: Variant C60 (antibody, V domains shown)
VH: B1 VH with N52S, S54N, T55K, Y57R
VL: B1 VL with S28K, N52D
B18: Variant C44 (antibody, V domains shown)
VH: B1 VH with N52S, S54K, T55K
VL: B1 VL with S28K, N52D
B19: Variant C57 (antibody, V domains shown)
VH: B1 VH with N52K, S54K, T55S, Y57R
VL: B1 VL with S28K, N52D
B20: Variant C48 (antibody, V domains shown)
VH: B1 VH with N52R, S54K, T55S
VL: B1 VL with S28K, N52D
B21: Variant C62 (antibody, V domains shown)
VH: B1 VH with N52K, S54N, T55K, Y57R
VL: B1 VL with S28K, N52D
B22: Variant C61 (antibody, V domains shown)
VH: B1 VH with N52S, S54N, T55S, Y57R
VL: B1 VL with S28K, N52D
B23: Variant C50 (antibody, V domains shown)
VH: B1 VH with N52S, S54N, T55S
VL: B1 VL with S28K, N52D
B24: Variant C45 (antibody, V domains shown)
VH: B1 VH with N52S, S54K, T55S
VL: B1 VL with S28K, N52D
B25: Variant C63 (antibody, V domains shown)
VH: B1 VH with N52K, S54N, T55S, Y57R
VL: B1 VL with S28K, N52D
B26: Variant C47 (antibody, V domains shown)
VH: B1 VH with N52R, S54K, T55K
VL: B1 VL with S28K, N52D
B27: Variant C54 (antibody, V domains shown)
VH: B1 VH with N52S, S54R, T55S, Y57R
VL: B1 VL with S28K, N52D
B28: Variant C49 (antibody, V domains shown)
VH: B1 VH with N52S, S54N, T55K
VL: B1 VL with S28K, N52D
B29: Variant C55 (antibody, V domains shown)
VH: B1 VH with N52S, S54K, T55K, Y57R
VL: B1 VL with S28K, N52D

Biological target: T1, CD25 (recombinant)
Assay: SPR (BIAcore)

Kd [nM]	Binder
0.478	B1

Biological target: T2, human CD25
Assay: SPR (BIAcore)

Kd [nM]	Binder
0.029	B2
0.022	B3

Biological target: T3, CD25 on Kit225/K6 cells
Assay: cell-based or functional assay

Functional improvement (inhibition of proliferation of Kit225/K6 cells; IC50 normalized to wild type daclizumab) [fold]	Binder
1.5	B4
0.7	B5
2	B6
0.8	B7
3.5	B8
1.2	B9
0.4	B10
2.4	B11

Biological target: T5, cynomolgous monkey CD25 (cynomolgous monkey)
T5 construct: also called cmCD25; cm
Assay: SPR (BIAcore), cynomolgous CD25

Kd [nM]	Binder
0.011	B12
< 0.0024	B13
0.093	B14
0.075	B15
0.05	B16
< 0.0023	B17
0.042	B18
0.078	B19
0.053	B20
0.1	B21
0.055	B22
0.026	B23
0.055	B24
0.063	B25
0.1	B26
0.055	B27
0.0079	B28
0.049	B29

Biological target: T5, cynomolgous monkey CD25
Assay: SPR (BIAcore), cynomolgous CD25
Remark: another data set of the same source

Kd [nM]	Binder
0.011	B12
< 0.0024	B13
0.093	B14
0.075	B15
0.05	B16
< 0.0023	B17
0.042	B18
0.078	B19
0.053	B20
0.1	B21
0.055	B22
0.026	B23
0.055	B24
0.063	B25
0.1	B26
0.055	B27
0.0079	B28
0.049	B29

Biological target: T4, human CD25 (recombinant soluble)
Assay: SPR (BIAcore), antibody captured, CD25 injected

Affinity improvement (KD normalized to wild type daclizumab) [fold]	Kd [nM]	koff [s⁻¹]	kon [M⁻¹ s⁻¹]	Binder
31	0.016	2.18e-05	1.38e+06	B8
17	0.029	3.29e-05	1.24e+06	B9
23	0.022	3.34e-05	1.54e+06	B11

— patent publication US20200308290A1 (AbbVie / Abbott, published 2020)
